Measured values reported in the supplement of paper PMC5998384.

What was measured:
HeLa Kyoto [1] = assay: solubility in G1/S (NP-40 vs SDS abundance) (log2 ratio); higher = more soluble; conditions: cell cycle stage: G1/S
HeLa Kyoto [2] = assay: solubility change mitosis vs G1/S (difference of NP-40 vs SDS log2 ratios) (log2 ratio difference); higher = more soluble in mitosis
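Wherever solubility change mitosis vs G1/S (difference of NP-40 vs SDS log2 ratios) is given: synchronized HeLa Kyoto cells (double thymidine block for G1/S, nocodazole release for mitosis), protein amounts in NP-40 versus SDS lysates quantified by mass spectrometry, three biological replicates.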
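Wherever solubility in G1/S (NP-40 vs SDS abundance) is given: HeLa Kyoto cells arrested at G1/S by double thymidine block, proteins quantified by TMT10plex mass spectrometry in mild NP-40 versus SDS extracts, three biological replicates.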

MVARRRKCAARDPEDRIPSPLGYAAIPIKFSEKQQASHYLYVRAHGVRQGTKSTWPQKRTLFVLNVPPYCTEESLSRLLSTCGLVQSVELQEKPDLAESPKESRSKFFHPKPVPGFQVAYVVFQKPSGVSAALALKGPLLVSTESHPVKSGIHKWISDYADSVPDPEALRVEVDTFMEAYDQKIAEEEAKAKEEEGVPDEEGWVKVTRRGRRPVLPRTEAASLRVLERERRKRSRKELLNFYAWQHRESKMEHLAQLRKKFEEDKQRIELLRAQRKFRPY [RRP7A]
solubility in G1/S (log2) (HeLa Kyoto [1]): -1.58
solubility change mitosis (log2) (HeLa Kyoto [2]): 1.02

MVGRSRRRGAAKWAAVRAKAGPTLTDENGDDLGLPPSPGDTSYYQDQVDDFHEARSRAALAKGWNEVQSGDEEDGEEEEEEVLALDMDDEDDEDGGNAGEEEEEENADDDGGSSVQSEAEASVDPSLSWGQRKKLYYDTDYGSKSRGRQSQQEAEEEEREEEEEAQIIQRRLAQALQEDDFGVAWVEAFAKPVPQVDEAETRVVKDLAKVSVKEKLKMLRKESPELLELIEDLKVKLTEVKDELEPLLELVEQGIIPPGKGSQYLRTKYNLYLNYCSNISFYLILKARRVPAHGHPVIERLVTYRNLINKLSVVDQKLSSEIRHLLTLKDDAVKKELIPKAKSTKPKPKSVSKTSAAACAVTDLSDDSDFDEKAKLKYYKEIEDRQKLKRKKEENSTEEQALEDQNAKRAITYQIAKNRGLTPRRKKIDRNPRVKHREKFRRAKIRRRGQVREVRKEEQRYSGELSGIRAGVKKSIKLK [UTP3]
solubility in G1/S (log2) (HeLa Kyoto [1]): -1.76
solubility change mitosis (log2) (HeLa Kyoto [2]): 1.04

MVHAFLIHTLRAPNTEDTGLCRVLYSCVFGAEKSPDDPRPHGAERDRLLRKEQILAVARQVESMCRLQQQASGRPPMDLQPQSSDEQVPLHEAPRGAFRLAAENPFQEPRTVVWLGVLSLGFALVLDAHENLLLAEGTLRLLTRLLLDHLRLLAPSTSLLLRADRIEGILTRFLPHGQLLFLNDQFVQGLEKEFSAAWPR [AP5S1]
solubility in G1/S (log2) (HeLa Kyoto [1]): -0.269
solubility change mitosis (log2) (HeLa Kyoto [2]): -0.153

MVKLFIGNLPREATEQEIRSLFEQYGKVLECDIIKNYGFVHIEDKTAAEDAIRNLHHYKLHGVNINVEASKNKSKASTKLHVGNISPTCTNQELRAKFEEYGPVIECDIVKDYAFVHMERAEDAVEAIRGLDNTEFQGKRMHVQLSTSRLRTAPGMGDQSGCYRCGKEGHWSKECPVDRTGRVADFTEQYNEQYGAVRTPYTMGYGESMYYNDAYGALDYYKRYRVRSYEAVAAAAAASAYNYAEQTMSHLPQVQSTTVTSHLNSTSVDPYDRHLLPNSGAAATSAAMAAAAATTSSYYGRDRSPLRRAAAMLPTVGEGYGYGPESELSQASAATRNSLYDMARYEREQYVDRARYSAF [RBM4B]
solubility in G1/S (log2) (HeLa Kyoto [1]): 0.227
solubility change mitosis (log2) (HeLa Kyoto [2]): -0.335

MVLKAFFPTCCVSTDSGLLVGRWVPEQSSAVVLAVLHFPFIPIQVKQLLAQVRQASQVGVAVLGTWCHCRQEPEESLGRFLESLGAVFPHEPWLRLCRERGGTFWSCEATHRQAPTAPGAPGEDQVMLIFYDQRQVLLSQLHLPTVLPDRQAGATTASTGGLAAVFDTVARSEVLFRSDRFDEGPVRLSHWQSEGVEASILAELARRASGPICLLLASLLSLVSAVSACRVFKLWPLSFLGSKLSTCEQLRHRLEHLTLIFSTRKAENPAQLMRKANTVASVLLDVALGLMLLSWLHGRSRIGHLADALVPVADHVAEELQHLLQWLMGAPAGLKMNRALDQVLGRFFLYHIHLWISYIHLMSPFVEHILWHVGLSACLGLTVALSLLSDIIALLTFHIYCFYVYGARLYCLKIHGLSSLWRLFRGKKWNVLRQRVDSCSYDLDQLFIGTLLFTILLFLLPTTALYYLVFTLLRLLVVAVQGLIHLLVDLINSLPLYSLGLRLCRPYRLADKPTALQPRGAHLPPPQLWLPPQALLGRPVPQAVPWGAHLPLEAERGQAGLRELLARLAPPHGHSQPSALPGWHQLSWRMSCALWTLLCAPEHGRPCYHTLGLEVIGSEQMWGWPARLAALHHWHCLPWDPLPTCCGHHGGEHSNPRCPEHCPMPTLCTQVQRVRPPQQPQVEGWSPWGLPSGSALAVGVEGPCQDEPPSPRHPLAPSAEQHPASGGLKQSLTPVPSGPGPSLPEPHGVYLRMFPGEVAL [PIGQ]
solubility in G1/S (log2) (HeLa Kyoto [1]): -0.0206
solubility change mitosis (log2) (HeLa Kyoto [2]): -0.119

MVMADGPRHLQRGPVRVGFYDIEGTLGKGNFAVVKLGRHRITKTEVAIKIIDKSQLDAVNLEKIYREVQIMKMLDHPHIIKLYQVMETKSMLYLVTEYAKNGEIFDYLANHGRLNESEARRKFWQILSAVDYCHGRKIVHRDLKAENLLLDNNMNIKIADFGFGNFFKSGELLATWCGSPPYAAPEVFEGQQYEGPQLDIWSMGVVLYVLVCGALPFDGPTLPILRQRVLEGRFRIPYFMSEDCEHLIRRMLVLDPSKRLTIAQIKEHKWMLIEVPVQRPVLYPQEQENEPSIGEFNEQVLRLMHSLGIDQQKTIESLQNKSYNHFAAIYFLLVERLKSHRSSFPVEQRLDGRQRRPSTIAEQTVAKAQTVGLPVTMHSPNMRLLRSALLPQASNVEAFSFPASGCQAEAAFMEEECVDTPKVNGCLLDPVPPVLVRKGCQSLPSNMMETSIDEGLETEGEAEEDPAHAFEAFQSTRSGQRRHTLSEVTNQLVVMPGAGKIFSMNDSPSLDSVDSEYDMGSVQRDLNFLEDNPSLKDIMLANQPSPRMTSPFISLRPTNPAMQALSSQKREVHNRSPVSFREGRRASDTSLTQGIVAFRQHLQNLARTKGILELNKVQLLYEQIGPEADPNLAPAAPQLQDLASSCPQEEVSQQQESVSTLPASVHPQLSPRQSLETQYLQHRLQKPSLLSKAQNTCQLYCKEPPRSLEQQLQEHRLQQKRLFLQKQSQLQAYFNQMQIAESSYPQPSQQLPLPRQETPPPSQQAPPFSLTQPLSPVLEPSSEQMQYSPFLSQYQEMQLQPLPSTSGPRAAPPLPTQLQQQQPPPPPPPPPPRQPGAAPAPLQFSYQTCELPSAASPAPDYPTPCQYPVDGAQQSDLTGPDCPRSPGLQEAPSSYDPLALSELPGLFDCEMLDAVDPQHNGYVLVN [SIK2]
solubility in G1/S (log2) (HeLa Kyoto [1]): 0.0463
solubility change mitosis (log2) (HeLa Kyoto [2]): -0.0513

MVPGARGGGALARAAGRGLLALLLAVSAPLRLQAEELGDGCGHLVTYQDSGTMTSKNYPGTYPNHTVCEKTITVPKGKRLILRLGDLDIESQTCASDYLLFTSSSDQYGPYCGSMTVPKELLLNTSEVTVRFESGSHISGRGFLLTYASSDHPDLITCLERASHYLKTEYSKFCPAGCRDVAGDISGNMVDGYRDTSLLCKAAIHAGIIADELGGQISVLQRKGISRYEGILANGVLSRDGSLSDKRFLFTSNGCSRSLSFEPDGQIRASSSWQSVNESGDQVHWSPGQARLQDQGPSWASGDSSNNHKPREWLEIDLGEKKKITGIRTTGSTQSNFNFYVKSFVMNFKNNNSKWKTYKGIVNNEEKVFQGNSNFRDPVQNNFIPPIVARYVRVVPQTWHQRIALKVELIGCQITQGNDSLVWRKTSQSTSVSTKKEDETITRPIPSEETSTGINITTVAIPLVLLVVLVFAGMGIFAAFRKKKKKGSPYGSAEAQKTDCWKQIKYPFARHQSAEFTISYDNEKEMTQKLDLITSDMADYQQPLMIGTGTVTRKGSTFRPMDTDAEEAGVSTDAGGHYDCPQRAGRHEYALPLAPPEPEYATPIVERHVLRAHTFSAQSGYRVPGPQPGHKHSLSSGGFSPVAGVGAQDGDYQRPHSAQPADRGYDRPKAVSALATESGHPDSQKPPTHPGTSDSYSAPRDCLTPLNQTAMTALL [DCBLD1]
solubility in G1/S (log2) (HeLa Kyoto [1]): 0.0249
solubility change mitosis (log2) (HeLa Kyoto [2]): -0.0211

MVRDSMAAAFRPSNRVLLQALQILVYPGVGGSGSVSCRCPLGAKRYLLTDNVVKLKEFQQKKVAVACNLSGTKETYFRNLKKKLTQNKLILKGELITLLHLCESRDHVELAKNVIYRYHAENKNFTLGEYKFGPLFVRLCYELDLEESAVELMKDQHLRGFFSDSTSFNILMDMLFIKGKYKSALQVLIEMKNQDVKFTKDTYVLAFAICYKLNSPESFKICTTLREEALLKGEILSRRASCFAVALALNQNEMAKAVSIFSQIMNPESIACINLNIIIHIQSNMLENLIKTLKNAAEGNLSKFVKRHVFSEEVLAKVREKVKDVPALVAKFDEIYGTLHITGQVTTDSLDAVLCHTPRDRKSHTLLLNKRMVSRRTFQPLSQSLLAE [PTCD2]
solubility in G1/S (log2) (HeLa Kyoto [1]): -0.0152
solubility change mitosis (log2) (HeLa Kyoto [2]): 0.106

MVRKLKFHEQKLLKQVDFLNWEVTDHNLHELRVLRRYRLQRREDYTRYNQLSRAVRELARRLRDLPERDQFRVRASAALLDKLYALGLVPTRGSLELCDFVTASSFCRRRLPTVLLKLRMAQHLQAAVAFVEQGHVRVGPDVVTDPAFLVTRSMEDFVTWVDSSKIKRHVLEYNEERDDFDLEA [IMP3]
solubility in G1/S (log2) (HeLa Kyoto [1]): -2.11
solubility change mitosis (log2) (HeLa Kyoto [2]): 1.1
